Assay results: patent US20050227296A1, “Method for indentifying integrin antagonists” (The General Hospital Corporation, a Massachusetts …, priority 1988, published 2005)

Biological target: T1, EAiC3b (erythrocytes coated with iC3b) (Homo sapiens, UniProt P01024)
T1 construct: EAiC3b (erythrocytes coated with iC3b) were generated by treating EAC3b with purified human factors H and I; tissue Sigma Chemical Co. (C5-deficient human serum); host or cells: human serum C3 deposited on IgM-coated erythrocytes
Assay: Erythrocyte binding assay, EAiC3b on immobilized proteins or peptides
Settings: 37° C., divalent cations
Description: Erythrocytes (E) coated with rabbit anti-E IgM (EA) or C3b (EAC3b) were prepared as described by Dana et al. (J. Immunol. 73:153, 1984). EAiC3b (erythrocytes coated with iC3b) were generated by treating EAC3b with purified human factors H and I, or alternatively prepared from EA using C5-deficient human serum (Sigma Chemical Co., St. Louis, Mo.). EAiC3b cells were washed and stored in isotonic veronal-buffered saline (VBS^2+), pH 7.4, containing 0.15 mM calcium-1 mM magnesium (MgCl2+CaCl2) and 1 mg/ml Soybean Trypsin Inhibitor (STI; Worthington Biochemical Co., Freehold, N.J.) at 1.5×10^8 cells/ml. […]
Immobilization of recombinant proteins and peptides: Purified recombinant A-domain was added to Immulon-2 96-well microtiter plates (Dynatech) overnight. […] Binding of the anti-CD11b mabs to the coated rA-domain was measured by ELISA and read using a plate reader (Molecular Dynamics).
Erythrocyte binding assays: Fluoresceinated EAiC3b, EAC3b or EA were resuspended to 1.5×10^8/ml in buffer A, and added […] to wells containing immobilized proteins or peptides in a total volume of 100 ml. […] Fluorescence was quantified (excitatory wavelength, 490 nm, emission wavelength, 510 nm) using a SLM 8000 fluorometer (SLM Instruments, Urbana, Ill.). […] The effect of temperature was evaluated in the presence of 1 mM MnCl2 at 37° C. and at 4° C.

T1 sequence (P01024 749-1303 limits assumed): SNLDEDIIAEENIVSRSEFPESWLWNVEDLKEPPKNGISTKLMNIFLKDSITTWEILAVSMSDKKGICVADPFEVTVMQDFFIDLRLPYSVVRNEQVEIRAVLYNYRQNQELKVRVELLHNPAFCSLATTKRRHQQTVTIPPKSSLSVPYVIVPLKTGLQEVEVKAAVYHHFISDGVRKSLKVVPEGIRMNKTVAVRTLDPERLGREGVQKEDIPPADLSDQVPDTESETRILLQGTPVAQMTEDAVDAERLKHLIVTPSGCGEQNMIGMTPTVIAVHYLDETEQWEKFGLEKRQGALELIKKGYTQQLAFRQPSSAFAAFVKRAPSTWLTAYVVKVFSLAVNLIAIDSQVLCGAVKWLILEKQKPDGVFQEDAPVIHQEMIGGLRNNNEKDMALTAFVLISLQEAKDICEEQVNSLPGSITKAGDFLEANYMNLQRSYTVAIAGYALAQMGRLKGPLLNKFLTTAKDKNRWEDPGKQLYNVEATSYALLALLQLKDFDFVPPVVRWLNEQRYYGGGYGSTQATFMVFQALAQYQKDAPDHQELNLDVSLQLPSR
T1 sequence (P01024 23-667 partner limits assumed): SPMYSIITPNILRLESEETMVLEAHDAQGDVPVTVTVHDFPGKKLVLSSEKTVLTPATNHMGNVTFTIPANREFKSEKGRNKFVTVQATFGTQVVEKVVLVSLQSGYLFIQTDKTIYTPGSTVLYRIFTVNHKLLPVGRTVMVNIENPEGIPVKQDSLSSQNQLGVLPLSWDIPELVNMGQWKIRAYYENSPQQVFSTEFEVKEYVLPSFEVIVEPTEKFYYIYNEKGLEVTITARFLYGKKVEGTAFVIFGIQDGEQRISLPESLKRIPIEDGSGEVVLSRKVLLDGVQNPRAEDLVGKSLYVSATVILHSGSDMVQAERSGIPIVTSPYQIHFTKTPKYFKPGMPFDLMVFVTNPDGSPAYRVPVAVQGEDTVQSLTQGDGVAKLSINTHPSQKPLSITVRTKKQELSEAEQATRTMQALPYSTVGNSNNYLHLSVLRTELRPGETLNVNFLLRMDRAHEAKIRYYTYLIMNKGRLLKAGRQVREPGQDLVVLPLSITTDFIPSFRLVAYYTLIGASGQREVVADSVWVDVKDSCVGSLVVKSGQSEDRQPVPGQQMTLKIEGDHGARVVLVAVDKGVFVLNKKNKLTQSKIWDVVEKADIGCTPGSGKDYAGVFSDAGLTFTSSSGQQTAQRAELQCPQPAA
T1 sequence (P01024 1321-1663 partner limits assumed): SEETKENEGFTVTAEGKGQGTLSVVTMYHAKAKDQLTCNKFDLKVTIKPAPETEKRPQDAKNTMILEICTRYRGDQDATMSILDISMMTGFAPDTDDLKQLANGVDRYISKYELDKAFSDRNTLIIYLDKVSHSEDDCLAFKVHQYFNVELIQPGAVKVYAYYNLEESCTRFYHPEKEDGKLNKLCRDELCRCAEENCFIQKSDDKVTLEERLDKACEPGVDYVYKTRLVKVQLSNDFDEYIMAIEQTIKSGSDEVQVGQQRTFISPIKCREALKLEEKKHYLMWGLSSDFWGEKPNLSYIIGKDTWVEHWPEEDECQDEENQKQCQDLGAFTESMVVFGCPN

B1: r11aA: recombinant CD11a A domain expressed as GST fusion protein (protein)
chain: GNVDLVFLFDGSMSLQPDEFQKILDFMKDVMKKLSNTSYQFAAVQFSTSYKTEFDFSDYVKRKDPDALLKHVKHMLLLTNTFGAINYVATEVFREELGARPDATKVLIIITDGEATDSGNIDAAKDIIRYIIGIGKHFQTKESQETLHKFASKPASEFVKILDTFEKLKDLFTELQKKIY
direct binding of EAiC3b to immobilized protein or peptide (listed as rA-domain derived from CD11a/CD18): did not bind
direct binding of EAiC3b to immobilized protein or peptide (listed as rCD11a A-domain): lack of binding
